According to publication PMC4402612:

Biological target: SPE-7 IgE (DNP-specific murine IgE/λ, highly cytokinergic) (murine)

IC50 of recombinant SPE-7 IgE Fab (30–600 nM) for inhibition of LAD-2 cell TNF-α release evoked by 30 nM SPE-7 IgE; pair blocked: 'free' SPE-7 IgE with receptor-bound SPE-7 IgE: 170 nM
IC50 of recombinant SPE-7 IgE Fab (30–600 nM) for inhibition of LAD-2 mast cell degranulation induced by 30 nM SPE-7 IgE; pair blocked: 'free' SPE-7 IgE with receptor-bound SPE-7 IgE: 190 nM
Substance: recombinant SPE-7 IgE Fab
